In FireProtDB (doi:10.1016/0022-2836(92)90560-7):

B1: Ribonuclease, P00648 (parent)
chain: MMKMEGIALKKRLSWISVCLLVLVSAAGMLFSTAAKTETSSHKAHTEAQVINTFDGVADYLQTYHKLPDNYITKSEAQALGWVASKGNLADVAPGKSIGGDIFSNREGKLPGKSGRTWREADINYTSGFRNSDRILYSSDWLIYKTTDHYQTFTKIR

Variants of: B1
Details: Bacillus amyloliquefaciens, 25 °C, Urea, Fluorescence, MES/Tris 150 mM/150 mM/, NaCl 1 M, structure 1BNI, whole UniProt chain shown

| Variant | denaturant m value (pH 9) [kcal/mol/M] | denaturant midpoint (higher = more stable) (pH 9) [M] | unfolding free energy (pH 9) [kcal/mol] | ddG of mutation (higher = less stable) (pH 5.8) [kcal/mol] | denaturant m value (pH 5.8) [kcal/mol/M] | denaturant midpoint (higher = more stable) (pH 5.8) [M] | unfolding free energy (pH 5.8) [kcal/mol] | ddG of mutation (higher = less stable) (pH 9) [kcal/mol] |
| --- | --- | --- | --- | --- | --- | --- | --- | --- |
| H65G W141L | 1.8 | 4.96 | 9.72 |  |  |  |  |  |
| H65G | 2.07 | 5.06 | 9.92 | 0.98 | 1.85 | 5.12 | 10 | -0.51 |
| W141F | 2.01 | 4.5 | 8.81 | 1.06 | 1.89 | 5.07 | 9.94 | 0.6 |
| W141Y | 2 | 4.29 | 8.42 | 1.27 | 1.98 | 4.96 | 9.73 | 0.99 |
| W141L | 1.98 | 4.47 | 8.75 | 1.59 | 2 | 4.8 | 9.41 | 0.66 |
